According to PMC2802452:

Molecular target: HLA-A2-mCFP (human)
Assay: FRET or BRET

B1: Bap31-mYFP-KKEE (natural protein)
chain: MSLQWTAVATFLYAEVFVVLLLCIPFISPKRWQKIFKSRLVELLVSYGNTFFVVLIVILVLLVIDAVREIRKYDDVTEKVNLQNNPGAMEHFHMKLFRAQRNLYIAGFSLLLSFLLRRLVTLISQQATLLASNEAFKKQAESASEAAKKYMEENDQLKKGAAVDGGKLDVGNAEVKLEEENRSLKADLQKLKDELASTKQKLEKAENQVLAMRKQSEGLTKEYDRLLEEHAKLQAAVDGPMDKKEE
- FRET efficiency at A:D of 1: 5%
- fold FRET at A:D 1:1 after feeding Tax peptide, against controls: 2 fold
